Assay results from patent publication US8389676B2, “Biotinylation tag peptides” (Pacific Biosciences of California, Inc., priority 2010, dated 2013).
Where a chain is given by its changes, count along the chain named. No end group written: not given here.

B1: Leu Asn Asp Leu Phe His Ala Gln Lys Ile Glu Trp His (protein)
chain: LNDLFHAQKIEWHHHHHHHHHHHMKHMPRKMYSCDFETTTKVEDCRVWAYGYMNIEDHSEYKIGNSLDEFMAWVLKVQADLYFHNLKFDGAFIINWLERNGFKWSADGLPNTYNTIISRMGQWYMIDICLGYKGKRKIHTVIYDSLKKLPFPVKKIAKDFKLTVLKGDIDYHKERPVGYKITPEEYAYIKNDIQIIAEALLIQFKQGLDRMTAGSDSLKGFKDIITTKKFKKVFPTLSLGLDKEVRYAYRGGFTWLNDRFKEKEIGEGMVFDVNSLYPAQMYSRLLPYGEPIVFEGKYVWDEDYPLHIQHIRCEFELKEGYIPTIQIKRSRFYKGNEYLKSSGGEIADLWLSNVDLELMKEHYDLYNVEYISGLKFKATTGLFKDFIDKWTYIKTTSEGAIKQLAKLMLNSLYGKFASNPDVTGKVPYLKENGALGFRLGEEETKDPVYTPMGVFITAWARYTTITAAQACYDRIIYCDTDSIHLTGTEIPDVIKDIVDPKKLGYWAHESTFKRAKYLRQKTYIQDIYMKEVDGKLVEGSPDDYTDIKFSVKCAGMTDKIKKEVTFENFKVGFSRKMKPKPVQVPGGVVLVDDTFTIK
notes: biotinylation peptide tested as N-terminal fusion: biotinylation peptide-His(10)-phi29 pol
B2: Leu Asn Asp Ile Val Glu Ala Gln Lys Ile Glu Trp His (protein)
chain: B1 chain with L4I, F5V, H6E
notes: as for B1

Biological target: streptavidin (Streptomyces avidinii, UniProt P22629)
Assay: Degree of biotinylation assessed by HPLC as fraction bound to streptavidin
Format: binding
Conditions: fusion protein biotinylation peptide-His(10)-phi29 pol, biotinylated in vivo in E. coli co-expressing biotin ligase, Ni-NTA purified, 2-fold molar excess of streptavidin
Description: Each of the DNA sequences encoding the affinity peptides was added individually to the 5′ terminus of a His(10)-tagged phi29 DNA polymerase gene such that the polypeptide expressed from each construct was a fusion protein consisting of: N-terminus-biotinylation peptide-His(10)-phi29 pol-C-terminus. Each gene was expressed in E. coli cells co-expressing biotin ligase in culture medium containing biotin. These conditions are known to effect the in-vivo biotinylation of biotinylation peptides. Proteins were purified using Ni-NTA columns and then mixed with a 2-fold molar excess of streptavidin under conditions known to effect binding of streptavidin to biotinylated fusion proteins.
The degree of biotinylation of each protein was assessed by HPLC. […] None of the biotinylation peptides affected the polymerase activity when tested in a branching fraction assay performed, for example, as described in U.S. patent application No. 2010/0112645.

Chain of streptavidin (P22629 25-183, species assumed): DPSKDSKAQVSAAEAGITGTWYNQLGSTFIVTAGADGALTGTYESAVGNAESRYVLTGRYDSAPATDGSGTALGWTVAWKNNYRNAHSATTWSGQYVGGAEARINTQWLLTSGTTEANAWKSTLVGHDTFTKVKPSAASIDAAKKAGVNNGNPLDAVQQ

| Molecule | degree of biotinylation: bound to streptavidin |
| --- | --- |
| B1 | approximately 50% |
| B2 | approximately 50% |
